Measurements taken from patent US20180118789A1 (REGENTS OF THE UNIVERSITY OF MINNESOTA, published 2018).
Each block holds one binder with its values, some of them ahead of it. Non-standard residues stand in square brackets, D forms with d. Dap = NC[C@H](N)C(=O)O

Columns and labels:
Experiment in all cases: cell-based or functional assay
[1] = molecular target: T1, mouse melanocortin 3 receptor (mouse, UniProt P33033 1-323)
[2] = molecular target: T2, mouse melanocortin 5 receptor (mouse, UniProt P41149 1-325)
T2 sequence (P41149 whole entry): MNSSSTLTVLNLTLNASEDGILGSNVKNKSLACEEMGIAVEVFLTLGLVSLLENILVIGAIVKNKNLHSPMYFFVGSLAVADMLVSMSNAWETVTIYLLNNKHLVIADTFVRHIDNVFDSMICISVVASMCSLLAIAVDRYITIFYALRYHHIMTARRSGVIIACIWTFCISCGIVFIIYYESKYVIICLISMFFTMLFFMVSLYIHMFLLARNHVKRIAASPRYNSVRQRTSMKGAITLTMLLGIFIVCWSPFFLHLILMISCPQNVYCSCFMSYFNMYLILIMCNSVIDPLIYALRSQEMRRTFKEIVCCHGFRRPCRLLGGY

[3] = molecular target: T3, mouse melanocortin 4 receptor (mouse, UniProt P56450 1-332)
T3 sequence (P56450 whole entry): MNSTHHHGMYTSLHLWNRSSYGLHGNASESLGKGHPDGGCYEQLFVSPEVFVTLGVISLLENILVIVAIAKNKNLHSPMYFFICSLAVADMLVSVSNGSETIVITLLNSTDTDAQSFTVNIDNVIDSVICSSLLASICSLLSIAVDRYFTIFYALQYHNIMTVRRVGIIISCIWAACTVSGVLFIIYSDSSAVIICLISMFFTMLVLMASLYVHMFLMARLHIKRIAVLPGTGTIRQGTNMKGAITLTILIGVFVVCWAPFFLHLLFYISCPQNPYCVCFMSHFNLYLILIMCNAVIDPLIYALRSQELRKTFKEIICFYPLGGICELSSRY

[4] = molecular target: T4, mouse melanocortin 1 receptor (mouse, UniProt Q01727 1-315)
T4 sequence (Q01727 whole entry): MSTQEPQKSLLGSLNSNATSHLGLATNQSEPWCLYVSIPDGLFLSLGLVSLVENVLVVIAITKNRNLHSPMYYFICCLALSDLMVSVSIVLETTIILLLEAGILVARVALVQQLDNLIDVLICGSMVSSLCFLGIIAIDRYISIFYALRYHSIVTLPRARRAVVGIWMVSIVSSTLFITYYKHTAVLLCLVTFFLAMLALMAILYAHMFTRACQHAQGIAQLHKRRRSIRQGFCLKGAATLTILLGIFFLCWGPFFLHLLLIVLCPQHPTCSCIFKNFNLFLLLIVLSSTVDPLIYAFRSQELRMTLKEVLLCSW

[5] = molecular target: T1, mouse melanocortin 3 receptor; remark: listed apart in the source
[6] = molecular target: T2, mouse melanocortin 5 receptor; remark: listed apart in the source
[7] = molecular target: T3, mouse melanocortin 4 receptor; remark: listed apart in the source
[8] = molecular target: T4, mouse melanocortin 1 receptor; remark: listed apart in the source

T1 sequence (P33033 whole entry): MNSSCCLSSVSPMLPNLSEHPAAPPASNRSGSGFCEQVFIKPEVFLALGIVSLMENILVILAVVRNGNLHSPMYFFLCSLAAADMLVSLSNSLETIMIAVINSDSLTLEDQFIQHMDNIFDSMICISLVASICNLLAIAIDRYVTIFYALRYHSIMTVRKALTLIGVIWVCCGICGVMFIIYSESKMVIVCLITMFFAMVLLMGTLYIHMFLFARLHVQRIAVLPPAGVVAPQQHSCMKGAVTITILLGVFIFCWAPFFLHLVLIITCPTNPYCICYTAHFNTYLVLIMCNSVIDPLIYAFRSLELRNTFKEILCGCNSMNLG

fold loss of agonist potency relative to MDE5-149-2c [1]: 9 fold
fold loss of agonist potency relative to MDE5-149-2c [2]: 5 fold
fold loss of agonist potency relative to MDE5-149-2c [3]: 21 fold
fold loss of agonist potency relative to MDE5-149-2c [4]: 34 fold
EC50 (nM), agonist, cAMP AlphaScreen [5]: 300 nM
EC50 (nM), agonist, cAMP AlphaScreen [6]: 2.1 nM
EC50 (nM), agonist, cAMP AlphaScreen [7]: 29 nM
EC50 (nM), agonist, cAMP AlphaScreen [8]: 12 nM
Binder: cyclo(PH[dF]RWNA[dP]) (also: TFA salt) [MDE6-3-2c, c[Pro-His-DPhe-Arg-Trp-Asn-Ala-DPro]]

fold decrease of agonist potency against MDE5-149-1c [3]: 8 fold
fold increase of agonist potency over MDE5-149-1c [4]: 10 fold
EC50 (nM), agonist, cAMP AlphaScreen (lacked agonist activity at up to 100 µM) [5]: > 100000 nM
percent maximal stimulatory response observed at 100 µM [6]: 25%
EC50 (nM), agonist, cAMP AlphaScreen [7]: 1100 nM
EC50 (nM), agonist, cAMP AlphaScreen [8]: 40 nM
Binder: cyclo(P[dF]RWN[dP]) (also: TFA salt) [MDE6-10-1c, c[Pro-DPhe-Arg-Trp-Asn-DPro]]

EC50 (nM), agonist, cAMP AlphaScreen (lacked agonist activity at up to 100 µM) [5]: > 100000 nM
percent maximal stimulatory response observed at 100 µM [6]: 75%
percent maximal stimulatory response observed at 100 µM [7]: 50%
EC50 (nM), agonist, cAMP AlphaScreen [8]: 1800 nM
Binder: cyclo(P[dF]RW[dP]) (also: TFA salt) [MDE5-147-1c, c[Pro-DPhe-Arg-Trp-DPro]]

fold decrease of agonist potency relative to MDE5-149-2c [2]: 37 fold
fold decrease of agonist potency relative to MDE5-149-2c [3]: 121 fold
fold decrease of agonist potency relative to MDE5-149-2c [4]: 143 fold
apparent EC50 (nM), partial agonist, cAMP AlphaScreen [5]: 510 nM
partial agonist, percent maximal NDP stimulation [5]: 65%
EC50 (nM), agonist, cAMP AlphaScreen [6]: 16.8 nM
EC50 (nM), agonist, cAMP AlphaScreen [7]: 170 nM
EC50 (nM), agonist, cAMP AlphaScreen [8]: 50 nM
Binder: cyclo(PH[dF]RWN[dP]) (also: TFA salt) [MDE6-10-2c, c[Pro-His-DPhe-Arg-Trp-Asn-DPro]]

percent maximal stimulatory response observed at 100 µM [5]: 60%
EC50 (nM), agonist, cAMP AlphaScreen [6]: 6000 nM
percent maximal stimulatory response observed at 100 µM [7]: 65%
EC50 (nM), agonist, cAMP AlphaScreen [8]: 900 nM
Binder: cyclo(PH[dF]RW[dP]) (also: TFA salt) [MDE5-147-2c, c[Pro-His-DPhe-Arg-Trp-DPro]]

fold decreased potency relative to MDE5-149-2c [4]: 70 fold
EC50 (nM), agonist, cAMP AlphaScreen [5]: 260 nM
EC50 (nM), agonist, cAMP AlphaScreen [6]: 18 nM
apparent EC50 (nM), partial agonist, cAMP AlphaScreen [7]: 23 nM
partial agonist, percent maximal NDP stimulation [7]: 70%
EC50 (nM), agonist, cAMP AlphaScreen [8]: 24 nM
Binder: cyclo(PH[dF]RW[Dap]AF[dP]) (also: TFA salt) [MDE5-151-2c, c[Pro-His-DPhe-Arg-Trp-Dap-Ala-Phe-DPro]]

apparent EC50 (nM), partial agonist, cAMP AlphaScreen [5]: 3000 nM
partial agonist, percent maximal NDP stimulation [5]: 70%
EC50 (nM), agonist, cAMP AlphaScreen [6]: 46 nM
EC50 (nM), agonist, cAMP AlphaScreen [7]: 100 nM
apparent EC50 (nM), partial agonist, cAMP AlphaScreen [8]: 190 nM
partial agonist, percent maximal NDP stimulation [8]: 45%
Binder: cyclo(P[dF]RW[Dap]AF[dP]) (also: TFA salt) [MDE5-151-1c, c[Pro-DPhe-Arg-Trp-Dap-Ala-Phe-DPro]]

fold decrease of agonist potency relative to MDE6-5-2c [2]: 1100 fold
fold decrease of agonist potency relative to MDE6-5-2c [3]: 593 fold
fold decrease of agonist potency relative to MDE6-5-2c [4]: 418 fold
percent maximal stimulatory response observed at 100 µM [5]: 65%
EC50 (nM), agonist, cAMP AlphaScreen [6]: 330 nM
EC50 (nM), agonist, cAMP AlphaScreen [7]: 950 nM
EC50 (nM), agonist, cAMP AlphaScreen [8]: 460 nM
Binder: cyclo(PH[dF]RW[Dap][dP]) (also: TFA salt) [MDE6-12-2c, c[Pro-His-DPhe-Arg-Trp-Dap-DPro]]

percent maximal stimulatory response observed at 100 µM [5]: 55%
EC50 (nM), agonist, cAMP AlphaScreen [6]: 70 nM
EC50 (nM), agonist, cAMP AlphaScreen [7]: 420 nM
EC50 (nM), agonist, cAMP AlphaScreen [8]: 500 nM
Binder: cyclo(P[dF]RWNA[dP]) (also: TFA salt) [MDE6-3-1c, c[Pro-DPhe-Arg-Trp-Asn-Ala-DPro]]

EC50 (nM), agonist, cAMP AlphaScreen (lacked agonist activity at up to 100 µM) [5]: > 100000 nM
EC50 (nM), agonist, cAMP AlphaScreen (lacked agonist activity at up to 100 µM) [6]: > 100000 nM
percent maximal stimulatory response observed at 100 µM [7]: 35%
apparent EC50 (nM), partial agonist, cAMP AlphaScreen [8]: 110 nM
partial agonist, percent maximal NDP stimulation [8]: 75%
Binder: cyclo(P[dF]RW[Dap][dP]) (also: TFA salt) [MDE6-12-1c, c[Pro-DPhe-Arg-Trp-Dap-DPro]]

EC50 (nM), agonist, cAMP AlphaScreen [5]: 32 nM
EC50 (nM), agonist, cAMP AlphaScreen [6]: 0.45 nM
EC50 (nM), agonist, cAMP AlphaScreen [7]: 1.4 nM
EC50 (nM), agonist, cAMP AlphaScreen [8]: 0.35 nM
Binder: cyclo(PH[dF]RWNAF[dP]) (also: TFA salt) [MDE5-149-2c, c[Pro-His-DPhe-Arg-Trp-Asn-Ala-Phe-DPro]]

fold decreased potency relative to MDE5-149-2c [2]: 90 fold
fold decreased potency relative to MDE5-149-2c [3]: 90 fold
fold decreased potency relative to MDE5-149-2c [4]: 1140 fold
percent maximal stimulatory response observed at 100 µM [5]: 45%
EC50 (nM), agonist, cAMP AlphaScreen [6]: 40 nM
EC50 (nM), agonist, cAMP AlphaScreen [7]: 130 nM
EC50 (nM), agonist, cAMP AlphaScreen [8]: 400 nM
Binder: cyclo(P[dF]RWNAF[dP]) (also: TFA salt) [MDE5-149-1c, c[Pro-DPhe-Arg-Trp-Asn-Ala-Phe-DPro]]

EC50 (nM), agonist, cAMP AlphaScreen [5]: 40 nM
EC50 (nM), agonist, cAMP AlphaScreen [6]: 0.3 nM
EC50 (nM), agonist, cAMP AlphaScreen [7]: 1.6 nM
EC50 (nM), agonist, cAMP AlphaScreen [8]: 1.1 nM
Binder: cyclo(PH[dF]RW[Dap]A[dP]) (also: TFA salt) [MDE6-5-2c, c[Pro-His-DPhe-Arg-Trp-Dap-Ala-DPro]]

percent maximal stimulatory response observed at 100 µM [5]: 70%
EC50 (nM), agonist, cAMP AlphaScreen [6]: 48 nM
EC50 (nM), agonist, cAMP AlphaScreen [7]: 150 nM
EC50 (nM), agonist, cAMP AlphaScreen [8]: 600 nM
Binder: cyclo(P[dF]RW[Dap]A[dP]) (also: TFA salt) [MDE6-5-1c, c[Pro-DPhe-Arg-Trp-Dap-Ala-DPro]]
